Assay [1] deals with Dim1 (yeast, UniProt P41819 1-318). Description: pull-down.
In assay [2] the target is MBP-Dim1 (yeast, UniProt P41819 1-318). Description: pull-down.

The source of these data is publication PMC6192259 (Molecular cell, 2017).

Sequence of MBP-Dim1 (P41819 whole entry): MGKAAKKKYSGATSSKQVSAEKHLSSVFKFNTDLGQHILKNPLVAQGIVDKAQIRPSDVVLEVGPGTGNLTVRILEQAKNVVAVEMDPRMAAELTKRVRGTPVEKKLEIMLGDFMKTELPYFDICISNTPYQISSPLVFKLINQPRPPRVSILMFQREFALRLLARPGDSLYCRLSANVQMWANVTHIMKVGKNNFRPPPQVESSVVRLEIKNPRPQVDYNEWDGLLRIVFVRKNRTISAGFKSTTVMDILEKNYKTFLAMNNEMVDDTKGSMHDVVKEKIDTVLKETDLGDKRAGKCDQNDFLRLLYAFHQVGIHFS
Sequence of Dim1 (P41819 whole entry): as above

B1: MBP-Fap7 (enzyme, yeast, UniProt Q12055 1-197, looked up)
chain: MEARRYGPNIIVTGTPGCGKSSTCEFLKNKLKDYKYYNISDFAKDNDCFEGYDEGRKSHIVDEDKLLDMLEPLLRQGNSIVDWHVNDVFPERLIDLVVVLRCDNSNLYSRLHARGYHDSKIEENLDAEIMGVVKQDAVESYEPHIVVELQSDTKEDMVSNVSRIVAWEKMWLEQHPDGVTNEYQGPRSDDEDDEDSE
As to B1, the binding result in assay [1] was “binds”.

B2: Fap7 (enzyme, yeast, UniProt Q12055 1-197, looked up)
chain: B1 chain
Regarding B2, the binding result in assay [2] is listed as “binds”.
